In one experiment the target is T1, C2 (Comptech A112) (UniProt P06681 21-752).
T1 sequence (looked up): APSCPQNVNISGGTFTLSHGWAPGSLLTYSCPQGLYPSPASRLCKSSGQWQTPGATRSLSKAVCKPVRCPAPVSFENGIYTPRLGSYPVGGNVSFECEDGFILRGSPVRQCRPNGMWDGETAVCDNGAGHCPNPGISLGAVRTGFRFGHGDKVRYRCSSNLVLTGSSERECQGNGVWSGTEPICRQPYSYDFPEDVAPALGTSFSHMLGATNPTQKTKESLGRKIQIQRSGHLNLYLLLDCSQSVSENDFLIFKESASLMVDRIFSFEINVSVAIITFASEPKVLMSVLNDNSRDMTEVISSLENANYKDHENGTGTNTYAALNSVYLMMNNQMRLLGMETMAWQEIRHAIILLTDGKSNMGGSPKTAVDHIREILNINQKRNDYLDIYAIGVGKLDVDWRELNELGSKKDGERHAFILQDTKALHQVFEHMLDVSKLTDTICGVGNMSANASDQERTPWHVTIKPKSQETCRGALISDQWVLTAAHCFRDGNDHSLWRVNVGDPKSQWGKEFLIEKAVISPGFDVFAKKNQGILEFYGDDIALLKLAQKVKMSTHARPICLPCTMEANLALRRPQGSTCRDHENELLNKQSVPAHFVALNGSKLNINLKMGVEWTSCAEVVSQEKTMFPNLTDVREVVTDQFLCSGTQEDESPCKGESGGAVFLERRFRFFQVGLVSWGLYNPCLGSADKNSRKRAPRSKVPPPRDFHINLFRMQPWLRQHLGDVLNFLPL
Briefly: ELISA, target coated at 2.5 µg/mL, biotinylated antibody titrated, streptavidin-HRP, OD450 background subtracted. On the procedure:
Briefly, complement and plasma proteins were coated onto ELISA plates at 2. 5 μg/mL in PBS overnight at 4° C. Plates were then blocked with Casein for 1 hour at room temperature and washed four times with 1× DPBS/0.05% Tween-20 followed by a single wash with 1× DPBS. Serial dilutions starting at 50 μg/ml of biotinylated chimeric parent or VH6/VK7-IgG4v2 were added to the plate in PBS/0.1%casein/0.1%Tween-20 and incubated for 2 hours at room temperature. Plates were washed as described and a 1:10,000 dilution of streptavidin-HRP (Southern Biotech 7100-05) in PBS/0.1% casein/0.1% Tween-20 was added to the plate and incubated for 30 minutes at room temperature. Plates were again washed and Ultra TMP ELISA (Thermo 34028) was added to the plate for 1 minute, followed by stop solution). OD 450 nm was read in a plate reader and background at 620 nm was subtracted. Both the chimeric parent (FIG. 8A) and the humanized variant (FIG. 8B) show complete specificity for factor Bb.
For orientation: An ELISA detects its analyte on a solid surface through an enzyme-linked reagent.

Experiment [1] concerns the target T2, Homo sapiens factor Bb protein (human, UniProt P00751 260-764).
T2 construct: Bought from CompTech (A155); also called complement factor Bb; human factor Bb
Briefly: SPR single cycle kinetics; ratio against VH0/Vκ0. On the procedure: In order to assess the binding of all humanized variants, single cycle kinetic analysis was performed on supernatants from transfected cell cultures. […] All single cycle kinetic experiments were run at 25° C. with HBS-P+running buffer (pH 7. 4) (GE Healthcare, Little Chalfont, UK).
Antibodies were diluted in running buffer to a final concentration of 1 μg/ml, based on concentrations assessed by ELISA titer. At the start of each cycle, antibodies were loaded onto Fc2, Fc3 and Fc4 of the Protein A chip (GE Healthcare, Little Chalfont, UK). IgGs were captured at a flow rate of 10 μl/min to give an immobilization level (RL) of ˜63 RU, the theoretical value to obtain an Rmax of ˜50 RU. The surface was then allowed to stabilize. Single cycle kinetic data was obtained with factor Bb (CompTech, Tyler, USA) as the analyte at a flow rate of 30 μl/min to minimize any potential mass transport limitations. Multiple repeats with the reference chimeric antibody were performed to check the stability of the surface and analyte over the kinetic cycles. The signal from the reference channel Fc1 (no antibody) was subtracted from that of Fc2, Fc3 and Fc4 to correct for differences in non-specific binding to a reference surface. A four point, two-fold dilution range from 0. 78 nM to 6. 25 nM factor Bb without regeneration between each concentration was used. The association phase for the four injections of increasing concentrations of factor Bb was monitored for 200 seconds each time and a single dissociation phase was measured for 200 seconds following the last injection of factor Bb. Regeneration of the Protein A surface was conducted using two injections of 10 mM glycine-HCL pH 1. 5.
The sensorgrams and fitted data for the single cycle kinetics are shown in FIGS. 1A-1D and the kinetic parameters measured for the interaction of factor Bb with each antibody are shown in Table 7. The relative KD was calculated by dividing the KD of the VH0/Vκ0 reference antibody by that of the humanized variant assayed in the same experiment.

Experiment [2] concerns the target T2, Homo sapiens factor Bb protein. Briefly: SPR multi-cycle kinetics, IgG on Protein A chip, factor Bb analyte. On the procedure: (§1) Antibodies were diluted in running buffer to a final concentration of 0.5 μg/ml. At the start of each cycle, antibodies were loaded onto Fc2, Fc3 and Fc4 of the Protein A chip (GE Healthcare, Little Chalfont, UK). IgGs were captured at a flow rate of 10 μl/min to give an immobilisation level (RL) of ˜63 RU, the theoretical value to obtain an Rmax of ˜50 RU. The surface was then allowed to stabilize. Kinetic data was obtained with factor Bb as analyte and using a flow rate of 30 μl/min to minimize any potential mass transfer effects. Multiple repeats of a blank and a repeat of a single concentration of the analyte were programmed into the kinetic run in order to check the stability of both the surface and analyte over the kinetic cycles. For kinetic analysis, a two-fold dilution range was selected from 12. 5 nM to 0. 391 nM factor Bb. The association phase of factor Bb was monitored for 360 seconds and the dissociation phase was monitored for 600 seconds. Regeneration of the Protein A surface was conducted using two injections of 10 mM glycine-HCL pH 1. 5. The signal from the reference channel Fc1 was subtracted from that of Fc2, Fc3 and Fc4 to correct for differences in non-specific binding to a reference surface, and a global Rmax parameter was used in the 1-to-1 binding model.
(§2) The sensorgrams and fitted data for the binding of chimeric antibodies and humanized variants to factor Bb are shown in FIGS. 4A-4C. The relative KD was calculated by dividing the KD of the humanized variants by that of the chimeric antibody on the same chip. The kinetic parameters measured for the interaction of factor Bb with chimeric antibodies and humanized variants are shown in Table 10.

For experiment [3] the target is unchanged. Briefly: SPR multi-cycle kinetics; ratio against VH0/Vκ0 on the same chip. How it is done: as §1, §2
For experiment [4] the target is unchanged. Briefly: cell-based or functional assay.

“And” between values parts separate entries of the source, which are not always exact repeats. Equal entries are not always repeated.

T2 sequence (P00751 260-764 limits assumed): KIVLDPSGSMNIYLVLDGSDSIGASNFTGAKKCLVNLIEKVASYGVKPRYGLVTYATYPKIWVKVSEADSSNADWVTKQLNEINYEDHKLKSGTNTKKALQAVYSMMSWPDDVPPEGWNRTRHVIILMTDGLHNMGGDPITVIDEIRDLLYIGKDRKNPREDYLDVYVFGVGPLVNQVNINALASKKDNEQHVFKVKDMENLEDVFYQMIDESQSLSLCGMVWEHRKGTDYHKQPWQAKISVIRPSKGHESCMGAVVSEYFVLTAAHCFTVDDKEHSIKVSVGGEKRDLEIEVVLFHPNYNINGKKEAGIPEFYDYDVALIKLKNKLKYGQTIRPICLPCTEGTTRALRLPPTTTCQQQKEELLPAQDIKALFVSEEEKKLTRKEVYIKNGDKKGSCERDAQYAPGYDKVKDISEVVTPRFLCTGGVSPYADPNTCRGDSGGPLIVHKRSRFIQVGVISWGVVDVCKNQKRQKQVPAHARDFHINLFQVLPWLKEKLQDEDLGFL

B1: VH6/Vκ7-IgG4v2 (antibody)
heavy: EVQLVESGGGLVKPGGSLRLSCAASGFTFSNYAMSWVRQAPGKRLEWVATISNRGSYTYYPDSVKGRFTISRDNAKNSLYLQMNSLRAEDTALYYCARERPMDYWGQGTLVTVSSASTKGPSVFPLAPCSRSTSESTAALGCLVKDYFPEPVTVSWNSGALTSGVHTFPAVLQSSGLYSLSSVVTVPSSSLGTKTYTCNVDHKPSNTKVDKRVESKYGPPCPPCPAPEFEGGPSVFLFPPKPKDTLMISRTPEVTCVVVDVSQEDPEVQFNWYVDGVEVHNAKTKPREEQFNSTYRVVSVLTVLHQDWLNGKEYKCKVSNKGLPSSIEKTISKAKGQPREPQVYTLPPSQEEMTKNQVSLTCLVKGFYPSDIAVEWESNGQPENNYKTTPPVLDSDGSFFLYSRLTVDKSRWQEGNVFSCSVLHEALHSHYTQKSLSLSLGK
light: DIQMTQSPSTLSASVGDRVTITCKASQDVGTAVAWYQQKPGKAPKLLIYWASTRHTGVPDRFSGSGSGTDFTLTISSLQAEDFAVYFCHQHSSNPLTFGQGTKLEIKRTVAAPSVFIFPPSDEQLKSGTASVVCLLNNFYPREAKVQWKVDNALQSGNSQESVTEQDSKDSTYSLSSTLTLSKADYEKHKVYACEVTHQGLSSPVTKSFNRGEC
notes: also called VH6/VK7-IgG4v2; VH6/VK7-IgG4v2_HEK
As to B1, the binding result in the experiment with C2 (Comptech A112) is recorded as “no binding”.

B2: VH0/Vκ0 (Chimeric) (antibody, V domains shown)
VH: EVQLVESGGALVKPGGSLKLSCAASGFTFSNYAMSWVRQTPEKRLEWVATISNRGSYTYYPDSVKGRFTISRDNAKNTLYLQMSSLRSEDTALYYCARERPMDYWGQGTSVTVSS
VL: DIVMTQSHKFMSTSVGDRVSITCKASQDVGTAVAWYQQKPGQSPKLLIYWASTRHTGVPDRFTGSGSGTDFTLTITNVQSEDLAVYFCHQHSSNPLTFGAGTKLELK
notes: also called chimeric antibody
Regarding B2, in experiment [1], the “Relative KD” value was found to be 1. In experiment [2], the Kd was 1.99 nM and 1.91 nM and 1.9 nM; the off-rate (koff) was 0.000969 s⁻¹ and 0.000954 s⁻¹ and 0.00094 s⁻¹; the kon was 487000 M⁻¹ s⁻¹ and 500000 M⁻¹ s⁻¹ and 495000 M⁻¹ s⁻¹. The “Relative KD” value in experiment [3] amounted to 1. Further, the “AP Assay IC50” value in experiment [4] worked out at 24 nM.

In general, Kd refers to a measure of binding affinity in units of concentration. Low values mean higher affinity, high ones lower affinity. For orientation: koff means the rate constant with which the complex falls apart. Read a low koff as a long-lived complex. Usually kon stands for the rate constant with which the complex forms. Lower therefore signals slower complex formation.

(Values after patent US20210332115A1 (Sanofi, published 2021).)
